For the test, the system named is Yeast cells. The test is described as follows: Stability of Ha-labeled hybrid proteins expressed from the GAL1 promoter, measured with anti-Ha antibodies. Type of test: cell-based, S. cerevisiae.
Where [1] appears, read: in the absence of methionine (-Met).
The mark [2] stands for this setting: repressive conditions, in the presence of methionine (+Met).

B1: Ha-Met4: Met4 protein derivative with three hemagglutinin (Ha) antigenic units at its amino-terminal end, expressed in yeast under the GAL1 promoter (protein, UniProt P32389 1-672, looked up)
Transcriptional activator of …: MKQEQSHEGDSYSTEFINLFGKDTATHPSSNNGANNNGMGSTNSLDQFVATASSSSSLVTSSENRRPLIGDVTNRGNTNLYDHAVTPEILLEQLAYVDNFIPSLDNEFSNVDWNVNTTHNNANNNGADTFSSINANPFDLDEQLAIELSAFADDSFIFPDEDKPSNNNNNSNNGNDDHSNHDVLHEDPSTNNRQRNPHFLTQRRNTFLTSQYDQSKSRFSSKNKRNGNNGETNNFGDNMQNNHPFEPNFMGSPSQFPADATNMTSIDHGGFTNVDITSTENNTTGDNGVDALSNLLHRTTHTPNRSSPLSNVTSAQNSSSQQRKHSESKVDSNSDNNSSNKAPNITVPDYSIIPTSVLVTLLPRVNVPNGAYNSLISAGFDNDQIDAIAAIMAYHHQKKIRENNSNNNKNINTNDSQEAPILKNINELLSVLIPPSPAETRGPTTLSTSPSFNEHGVVAEASFLSSILELGIKHPKSNNIHNQRQPSRNDHKISRESDGNNGNDNVHHNNAVIKSSTTRGDEIAKIRSEPTLNASSSDHKENSLKRSHSGDLKNKKVPVDRKYSDNEDDEYDDADLHGFEKKQLIKKELGDDDEDLLIQSKKSHQKKKLKEKELESSIHELTEIAASLQKRIHTLETENKLLKNLVLSSGETEGIKKAESLKKQIFEKVQKE
modifications: N-terminal 3x HA tag
notes: Met4 protein derivative with three hemagglutinin (Ha) antigenic units at its amino-terminal end, expressed in yeast under the GAL1 promoter
For B1, the “half-life of the hybrid protein” value is, setting by setting: under setting [1], ~20 min; under setting [2], ~5 min.

B2: Ha-Met30: full-length Met30 protein with a repetition of 3 hemagglutinin (Ha) antigenic units at its amino-terminal end (protein, UniProt P39014 1-640, looked up)
chain: MRRERQRMMSFEDKDKDDLDNSNSNNSSEMTDTAMMPPLKRLLITGSSDDLAQGSSGKKKMTMATRSPSSSPDLATNDSGTRVQPLPEYNFTKFCYRHNPDIQFSPTHTACYKQDLKRTQEINANIAKLPLQEQSDIHHIISKYSNSNDKIRKLILDGILSTSCFPQLSYISSLVTHMIKIDFISILPQELSLKILSYLDCQSLCNATRVCRKWQKLADDDRVWYHMCEQHIDRKCPNCGWGLPLLHMKRARIQQNSTGSSSNADIQTQTTRPWKVIYRERFKVESNWRKGHCRIQEFKGHMDGVLTLQFNYRLLFTGSYDSTIGIWDLFTGKLIRRLSGHSDGVKTLYFDDRKLITGSLDKTIRVWNYITGECISTYRGHSDSVLSVDSYQKVIVSGSADKTVKVWHVESRTCYTLRGHTEWVNCVKLHPKSFSCFSCSDDTTIRMWDIRTNSCLKVFRGHVGQVQKIIPLTIKDVENLATDNTSDGSSPQDDPTMTDGADESDTPSNEQETVLDENIPYPTHLLSCGLDNTIKLWDVKTGKCIRTQFGHVEGVWDIAADNFRIISGSHDGSIKVWDLQSGKCMHTFNGRRLQRETQHTQTQSLGDKVAPIACVCIGDSECFSGDEFGCVKMYKFDLND
modifications: full-length N-terminal 3x HA tag
notes: full-length Met30 protein with a repetition of 3 hemagglutinin (Ha) antigenic units at its amino-terminal end
B2: the “half-life of the hybrid protein” value under setting [1] was ~20 min and the “half-life of the hybrid protein” value under setting [2] was “do not modify the half-life”.

B3: Ha-Met28: full-length Met28 protein with a repetition of 3 hemagglutinin (Ha) antigenic units at its amino-terminal end (protein, UniProt P40573 1-187, looked up)
chain: MSAKQGWEKKSTNIDIASRKGMNVNNLSEHLQNLISSDSELGSRLLSLLLVSSGNAEELISMINNGQDVSQFKKLREPRKGKVAATTAVVVKEEEAPVSTSNELDKIKQERRRKNTEASQRFRIRKKQKNFENMNKLQNLNTQINKLRDRIEQLNKENEFWKAKLNDINEIKSLKLLNDIKRRNMGR
modifications: full-length N-terminal 3x HA tag
notes: full-length Met28 protein with a repetition of 3 hemagglutinin (Ha) antigenic units at its amino-terminal end
For B3, the “half-life of the hybrid protein” value under setting [1] was ~20 min and the “half-life of the hybrid protein” value under setting [2] is listed as “do not modify the half-life”.

(Values after US20030175679A1, “Methods for cell screening of compounds capable of modulating the activity of ubiquitin-ligase scf complexes and their uses” (priority 1999, published 2003).)
